Assay results from publication PMC2731490 (Nature, 2009).

Columns and labels:
[1] = target: T1, pol V Mut (UmuD′2C–RecA), wild-type RecA (Escherichia coli, UniProt P0A7G6); experiment: hairpin primer/template extension, […]-labelled DNA; assay type: biochemical; details: nucleotide added after activation; RecA* absent; hydrolysis not needed
T1 sequence (P0A7G6 2-353): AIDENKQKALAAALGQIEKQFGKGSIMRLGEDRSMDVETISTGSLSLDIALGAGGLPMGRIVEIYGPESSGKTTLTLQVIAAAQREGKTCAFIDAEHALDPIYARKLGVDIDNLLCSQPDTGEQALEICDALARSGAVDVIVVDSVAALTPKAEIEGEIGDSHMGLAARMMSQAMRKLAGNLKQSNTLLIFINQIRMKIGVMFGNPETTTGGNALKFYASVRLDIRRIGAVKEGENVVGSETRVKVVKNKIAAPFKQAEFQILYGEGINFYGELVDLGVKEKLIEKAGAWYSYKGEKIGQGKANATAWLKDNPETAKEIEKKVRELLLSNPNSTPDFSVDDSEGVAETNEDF
T1 sequence (P04152 1-422 partner): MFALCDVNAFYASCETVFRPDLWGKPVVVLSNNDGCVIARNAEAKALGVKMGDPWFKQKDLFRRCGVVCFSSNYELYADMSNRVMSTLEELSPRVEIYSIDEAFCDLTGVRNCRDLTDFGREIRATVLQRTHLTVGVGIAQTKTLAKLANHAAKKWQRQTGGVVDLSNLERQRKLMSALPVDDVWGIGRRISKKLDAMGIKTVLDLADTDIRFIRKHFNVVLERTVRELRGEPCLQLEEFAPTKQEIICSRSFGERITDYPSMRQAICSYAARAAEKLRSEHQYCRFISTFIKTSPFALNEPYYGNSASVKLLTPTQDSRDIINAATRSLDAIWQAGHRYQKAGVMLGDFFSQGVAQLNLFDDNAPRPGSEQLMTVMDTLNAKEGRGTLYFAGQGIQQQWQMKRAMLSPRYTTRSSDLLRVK
T1 sequence (P0AG11 25-139 partner limits assumed): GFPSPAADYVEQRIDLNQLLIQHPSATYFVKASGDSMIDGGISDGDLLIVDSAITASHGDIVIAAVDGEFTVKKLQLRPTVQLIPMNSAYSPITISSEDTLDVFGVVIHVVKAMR

[2] = target: T2, DNA polymerase V (UmuD′2C) (E. coli, UniProt P04152 1-422; P0AG11 25-139)
T2 sequence (looked up) 1: T1 sequence (P04152 1-422 partner)
T2 sequence (looked up) 2: T1 sequence (P0AG11 25-139 partner limits assumed)

UmuC = target: T3, UmuC (E. coli, UniProt P04152 1-422); experiment: SEC-MALS
T3 sequence (looked up): T1 sequence (P04152 1-422 partner)

## Nc1ncnc2c1ncn2[C@@H]1O[C@H](COP(=O)(O)OP(=O)(O)OP(=O)(O)O)[C@@H](O)[C@H]1O [ATP]
[1]
  hairpin primer/template extension, 32P-labelled DNA: pol V Mut activated with wild-type RecA* is inactive in the absence of added ATP or ATPγS

B1: wild-type RecA (natural protein, E. coli, UniProt P0A7G6 1-353, looked up)
chain: MAIDENKQKALAAALGQIEKQFGKGSIMRLGEDRSMDVETISTGSLSLDIALGAGGLPMGRIVEIYGPESSGKTTLTLQVIAAAQREGKTCAFIDAEHALDPIYARKLGVDIDNLLCSQPDTGEQALEICDALARSGAVDVIVVDSVAALTPKAEIEGEIGDSHMGLAARMMSQAMRKLAGNLKQSNTLLIFINQIRMKIGVMFGNPETTTGGNALKFYASVRLDIRRIGAVKEGENVVGSETRVKVVKNKIAAPFKQAEFQILYGEGINFYGELVDLGVKEKLIEKAGAWYSYKGEKIGQGKANATAWLKDNPETAKEIEKKVRELLLSNPNSTPDFSVDDSEGVAETNEDF
[2]
  stoichiometry N: 1 RecA per UmuC per UmuD′2

B2: UmuD′ (natural protein, E. coli, UniProt P0AG11 25-139, looked up)
chain: T1 sequence (P0AG11 25-139 partner limits assumed)
UmuC
  binding result: binds
